Results as given in article PMC11746154.

B1: Rec104-LexA [S. cerevisiae] / Gal4AD-Spo11 [S. cerevisiae] (parent)
chain 1: MALEGLRKKYKTRQELVKALTPKRRSIHLNSNGHSNGTPCSNADVLAHIKHFLSLAANSLEQHQQPISIVFQNKKKKGDTSSPDIHTTLDFPLNGPHLCTHQFKLKRCAILLNLLKVVMEKLPLGKNTTVRDIFYSNVELFQRQANVVQWLDVIRFNFKLSPRKSLNIIPAQKGLVYSPFPIDIYDNILTCENEPKMQKQTIFPGKPCLIPFFQDDAVIKLGTTSMCNIVIVEKEAVFTKLVNNYHKLSTNTMLITGKGFPDFLTRLFLKKLEQYCSKLISDCSIFTDADPYGISIALNYTHSNERNAYICTMANYKGIRITQVLAQNNEVHNKSIQLLSLNQRDYSLAKNLIASLTANSWDIATSPLKNVIIECQREIFFQKKAEMNEIDARIFEYK
chain 2: MSIEEEDTNKITCTQDFLHQYFVTERVSIQFGLNNKTVKRINKDEFDKAVNCIMSWTNYPKPGLKRTASTYLLSNSFKKSATVSLPFILGDPVCMPKRVESNNNDTCLLYSDTLYDDPLIQRNDQAGDEIEDEFSFTLLRSEVNEIRPISSSSTAQILQSDYSALMYERQASNGSIFQFSSP
B2: LexA-Rec102 [S. cerevisiae] / Gal4AD-Spo11 [S. cerevisiae] (parent)
chain 1: B1 chain 1
chain 2: MARDITFLTVFLESCGAVNNDEAGKLLSAWTSTVRIEGPESTDSNSLYIPLLPPGMLKIKLNFKMNDRLVTEEQELFTKLREIVGSSIRFWEEQLFYQVQDVSTIENHVILSLKCTILTDAQISTFISKPRELHTHAKGYPEIYYLSELSTTVNFFSKEGNYVEISQVIPHFNEYFSSLIVSQLEFEYPMVFSMISRLRLKWQQSSLAPISYALTSNSVLLPIMLNMIAQDKSSTTAYQILCRRRGPPIQNFQIFSLPAVTYNK

Variants of: B1
Assay: Y2H β-galactosidase assay
Settings: with Gal4AD-Spo11 [S. cerevisiae]; parent: 1; read off a plot

| Variant | response (normalized β-gal units) |
| --- | --- |
| chain 2 D16A | 1.1 |
| chain 2 D16R | 0.53 |
| chain 2 F22A | 0.93 |
| chain 2 Q20A | 0.75 |
| chain 2 Y21A | 0.02 |

Same assay, conditions: with Rec104-LexA [S. cerevisiae]; parent: 1; read off a plot

| Variant | response (normalized β-gal units) |
| --- | --- |
| chain 1 K8A | 0.72 |
| chain 1 R7A | 0.85 |
| chain 1 R7D | 0.24 |

Variants of: B2
Assay: Y2H quantitative β-galactosidase assay
Settings: with Gal4AD-Spo11 [S. cerevisiae]; parent: 1; read off a plot

| Variant | response (normalized β-gal units) |
| --- | --- |
| chain 2 I195A | 0.2 |
| chain 2 I249A | 0.9 |
| chain 2 L198A | 0.15 |
| chain 2 L207A | 2 |
| chain 2 Q239A | 0.27 |
| chain 2 R199A | 0.02 |
| chain 2 S233A | 0.12 |
| chain 2 W202A | 0.1 |

Same assay, conditions: with LexA-Rec102 [S. cerevisiae]; parent: 1; read off a plot

| Variant | response (normalized β-gal units) |
| --- | --- |
| chain 1 F91A | 0.3 |
| chain 1 F103A | 0.35 |
| chain 1 G95A | 0.17 |
| chain 1 L3A | 0.27 |
| chain 1 L16A | 0.3 |
| chain 1 L20A | 0.35 |
| chain 1 L60A | 0.62 |
| chain 1 L93A | 0.15 |
| chain 1 L105A | 0.05 |
| chain 1 L112A | 0.03 |
| chain 1 N94A | 0.07 |
| chain 1 Q102A | 1.2 |
| chain 1 V17A | 0.5 |
